From patent EP4574844A1 (Numab Therapeutics AG, dated 2025) come the findings set out here.

Test [1] addresses T1, recombinant human LILRB2 (human, UniProt Q8N423 22-460, limits assumed).
T1 construct: also called ILT4
Briefly: SPR, LILRB2 immobilised, scFv as analyte.

The target of test [2] is T2, human LILRB2 on the cell surface (human, UniProt Q8N423 22-597).
T2 construct: whole, on cells; also called CHO K1 cells expressing human LILRB2; LILRB2 on HMDMs
Briefly: flow cytometry, CHO cells expressing LILRB2; competitor HLA-G tetramer. For orientation: In flow cytometry, cells or beads pass a laser one at a time.

Test [3] deals with T3, LILRA1 on transiently transfected CHO cells (UniProt O75019 17-489, limits assumed).
T3 construct: whole, on cells; V5 tag at the N-terminus
Briefly: CELISA, transiently transfected CHO cells; scFv cross-linked with an anti-framework antibody.

Test [4] concerns the target T4, LILRA2 on transiently transfected CHO cells (UniProt Q8N149 24-483).
T4 construct: whole, on cells; V5 tag at the N-terminus
Described as above.

Test [5] has as its target T5, LILRA3 on transiently transfected CHO cells (UniProt Q8N6C8 24-439).
T5 construct: whole, on cells; V5 tag at the N-terminus
The test is described as above.

Test [6] has as its target T6, LILRA4 on transiently transfected CHO cells (UniProt P59901 24-499).
T6 construct: whole, on cells; V5 tag at the N-terminus
Described as above.

For test [7], the target named is T7, LILRA5 on transiently transfected CHO cells (UniProt A6NI73 42-299).
T7 construct: whole, on cells; V5 tag at the N-terminus
Described as above.

Test [8] addresses T8, LILRA6 on transiently transfected CHO cells (UniProt Q6PI73 24-481).
T8 construct: whole, on cells; V5 tag at the N-terminus
The description is as above.

The target of test [9] is T9, LILRB3 on transiently transfected CHO cells (UniProt O75022 24-631, limits assumed).
T9 construct: whole, on cells; V5 tag at the N-terminus
The test is described as above.

The target of test [10] is T10, LILRB4 on transiently transfected CHO cells (UniProt Q8NHJ6 22-448).
T10 construct: whole, on cells; V5 tag at the N-terminus
The description is as above.

Test [11] addresses T11, LILRB5 on transiently transfected CHO cells (UniProt O75023 24-590, limits assumed).
T11 construct: whole, on cells; V5 tag at the N-terminus
Described as above.

In test [12] the target is T2, human LILRB2 on the cell surface. Briefly: flow cytometry, CHO cells expressing LILRB2; competitor HLA-G tetramer; reference PRO2518.

T1 sequence (Q8N423 22-460 limits assumed): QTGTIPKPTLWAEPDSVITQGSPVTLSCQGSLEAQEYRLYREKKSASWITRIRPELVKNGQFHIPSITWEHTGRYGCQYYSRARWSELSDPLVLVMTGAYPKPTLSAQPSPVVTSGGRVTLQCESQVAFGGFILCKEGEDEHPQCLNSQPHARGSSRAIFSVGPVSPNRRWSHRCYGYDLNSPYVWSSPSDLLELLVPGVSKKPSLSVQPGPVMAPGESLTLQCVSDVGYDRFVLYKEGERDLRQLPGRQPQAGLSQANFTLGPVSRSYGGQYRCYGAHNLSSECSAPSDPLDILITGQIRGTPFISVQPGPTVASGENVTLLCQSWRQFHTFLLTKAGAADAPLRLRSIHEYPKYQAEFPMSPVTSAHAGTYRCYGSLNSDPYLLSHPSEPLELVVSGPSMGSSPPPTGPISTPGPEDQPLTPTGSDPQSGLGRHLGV
T2 sequence (Q8N423 22-597): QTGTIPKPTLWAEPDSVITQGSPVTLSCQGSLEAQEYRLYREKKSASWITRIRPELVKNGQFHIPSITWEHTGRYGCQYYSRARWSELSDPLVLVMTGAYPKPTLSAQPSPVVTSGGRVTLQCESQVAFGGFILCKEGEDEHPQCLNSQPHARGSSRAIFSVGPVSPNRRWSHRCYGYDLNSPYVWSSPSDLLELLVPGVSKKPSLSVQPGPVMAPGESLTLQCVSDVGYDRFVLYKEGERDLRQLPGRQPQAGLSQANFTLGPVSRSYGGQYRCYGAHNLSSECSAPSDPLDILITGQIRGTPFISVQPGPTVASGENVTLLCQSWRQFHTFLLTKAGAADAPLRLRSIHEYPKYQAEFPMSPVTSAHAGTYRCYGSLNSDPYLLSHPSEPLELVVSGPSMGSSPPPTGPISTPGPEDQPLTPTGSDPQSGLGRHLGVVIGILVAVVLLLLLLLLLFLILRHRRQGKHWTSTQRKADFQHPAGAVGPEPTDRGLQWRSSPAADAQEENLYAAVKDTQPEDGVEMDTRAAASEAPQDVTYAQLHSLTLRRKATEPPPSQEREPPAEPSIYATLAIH
T3 sequence (O75019 17-489 limits assumed): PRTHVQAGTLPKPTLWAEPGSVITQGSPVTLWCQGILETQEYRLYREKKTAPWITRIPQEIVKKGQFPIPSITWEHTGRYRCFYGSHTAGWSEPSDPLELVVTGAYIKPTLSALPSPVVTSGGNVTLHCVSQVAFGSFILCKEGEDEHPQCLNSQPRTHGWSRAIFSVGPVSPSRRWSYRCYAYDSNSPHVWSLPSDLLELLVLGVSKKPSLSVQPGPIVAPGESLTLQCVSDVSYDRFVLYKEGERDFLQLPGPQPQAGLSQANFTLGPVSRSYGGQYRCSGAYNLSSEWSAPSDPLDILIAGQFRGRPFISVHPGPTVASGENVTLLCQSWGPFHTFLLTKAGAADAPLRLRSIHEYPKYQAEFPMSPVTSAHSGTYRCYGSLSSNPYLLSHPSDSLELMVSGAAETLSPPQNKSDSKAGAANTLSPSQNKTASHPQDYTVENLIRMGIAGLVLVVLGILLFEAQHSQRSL
T5 sequence (Q8N6C8 24-439): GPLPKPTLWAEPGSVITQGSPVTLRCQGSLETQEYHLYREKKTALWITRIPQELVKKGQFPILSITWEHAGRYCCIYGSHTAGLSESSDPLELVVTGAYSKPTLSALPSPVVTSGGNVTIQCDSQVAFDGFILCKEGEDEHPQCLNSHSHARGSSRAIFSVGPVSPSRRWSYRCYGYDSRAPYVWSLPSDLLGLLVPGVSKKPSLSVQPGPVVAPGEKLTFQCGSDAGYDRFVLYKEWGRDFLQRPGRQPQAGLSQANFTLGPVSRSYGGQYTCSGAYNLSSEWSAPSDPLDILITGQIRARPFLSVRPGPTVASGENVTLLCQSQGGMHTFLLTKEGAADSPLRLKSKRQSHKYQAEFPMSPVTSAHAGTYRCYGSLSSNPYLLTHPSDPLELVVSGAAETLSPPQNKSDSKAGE
T7 sequence (A6NI73 42-299): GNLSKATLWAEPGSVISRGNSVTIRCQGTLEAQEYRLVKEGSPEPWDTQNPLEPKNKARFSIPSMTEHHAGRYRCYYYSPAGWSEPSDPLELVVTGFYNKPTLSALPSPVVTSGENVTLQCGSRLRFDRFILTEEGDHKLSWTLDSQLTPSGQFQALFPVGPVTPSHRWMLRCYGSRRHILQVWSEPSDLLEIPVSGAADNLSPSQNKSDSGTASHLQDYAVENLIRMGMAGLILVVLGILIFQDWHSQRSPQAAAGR
T6 sequence (P59901 24-499): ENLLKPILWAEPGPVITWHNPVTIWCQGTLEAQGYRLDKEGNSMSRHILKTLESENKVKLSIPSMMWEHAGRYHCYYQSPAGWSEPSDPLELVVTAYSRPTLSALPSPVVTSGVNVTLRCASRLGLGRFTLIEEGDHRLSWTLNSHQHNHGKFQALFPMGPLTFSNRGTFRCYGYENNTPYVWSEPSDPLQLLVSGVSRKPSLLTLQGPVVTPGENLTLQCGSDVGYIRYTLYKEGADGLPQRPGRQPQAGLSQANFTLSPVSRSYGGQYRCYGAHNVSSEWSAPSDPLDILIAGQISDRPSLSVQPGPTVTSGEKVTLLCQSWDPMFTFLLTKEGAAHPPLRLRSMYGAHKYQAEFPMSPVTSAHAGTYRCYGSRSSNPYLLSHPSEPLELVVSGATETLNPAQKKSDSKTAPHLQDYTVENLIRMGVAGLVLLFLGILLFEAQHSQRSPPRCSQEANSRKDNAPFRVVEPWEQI
T8 sequence (Q6PI73 24-481): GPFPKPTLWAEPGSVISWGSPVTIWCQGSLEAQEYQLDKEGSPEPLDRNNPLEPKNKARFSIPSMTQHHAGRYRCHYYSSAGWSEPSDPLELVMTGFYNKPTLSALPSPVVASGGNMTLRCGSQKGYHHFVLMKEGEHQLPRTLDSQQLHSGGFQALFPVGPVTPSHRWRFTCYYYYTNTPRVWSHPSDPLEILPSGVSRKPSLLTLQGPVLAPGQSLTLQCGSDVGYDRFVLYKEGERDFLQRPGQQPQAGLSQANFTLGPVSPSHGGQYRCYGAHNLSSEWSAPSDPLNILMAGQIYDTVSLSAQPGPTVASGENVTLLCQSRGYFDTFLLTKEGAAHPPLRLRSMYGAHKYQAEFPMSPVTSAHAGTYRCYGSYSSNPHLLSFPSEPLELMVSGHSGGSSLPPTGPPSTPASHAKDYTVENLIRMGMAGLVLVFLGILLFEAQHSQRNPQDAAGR
T11 sequence (O75023 24-590 limits assumed): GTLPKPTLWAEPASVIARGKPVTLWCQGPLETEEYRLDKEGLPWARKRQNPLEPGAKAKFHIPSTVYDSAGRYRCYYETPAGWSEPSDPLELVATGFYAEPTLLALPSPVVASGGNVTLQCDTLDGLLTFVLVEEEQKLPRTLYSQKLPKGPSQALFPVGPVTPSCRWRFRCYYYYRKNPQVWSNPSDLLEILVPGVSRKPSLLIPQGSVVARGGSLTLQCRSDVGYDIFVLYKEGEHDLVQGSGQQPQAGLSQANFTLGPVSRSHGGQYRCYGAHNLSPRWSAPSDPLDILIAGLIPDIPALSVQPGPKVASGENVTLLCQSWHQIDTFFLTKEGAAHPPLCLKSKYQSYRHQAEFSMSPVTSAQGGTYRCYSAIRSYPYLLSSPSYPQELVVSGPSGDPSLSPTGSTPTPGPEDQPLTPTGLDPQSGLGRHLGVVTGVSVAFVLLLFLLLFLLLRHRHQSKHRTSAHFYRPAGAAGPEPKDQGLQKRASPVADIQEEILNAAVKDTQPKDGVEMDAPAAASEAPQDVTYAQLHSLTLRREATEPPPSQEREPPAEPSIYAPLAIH
T4 sequence (Q8N149 24-483): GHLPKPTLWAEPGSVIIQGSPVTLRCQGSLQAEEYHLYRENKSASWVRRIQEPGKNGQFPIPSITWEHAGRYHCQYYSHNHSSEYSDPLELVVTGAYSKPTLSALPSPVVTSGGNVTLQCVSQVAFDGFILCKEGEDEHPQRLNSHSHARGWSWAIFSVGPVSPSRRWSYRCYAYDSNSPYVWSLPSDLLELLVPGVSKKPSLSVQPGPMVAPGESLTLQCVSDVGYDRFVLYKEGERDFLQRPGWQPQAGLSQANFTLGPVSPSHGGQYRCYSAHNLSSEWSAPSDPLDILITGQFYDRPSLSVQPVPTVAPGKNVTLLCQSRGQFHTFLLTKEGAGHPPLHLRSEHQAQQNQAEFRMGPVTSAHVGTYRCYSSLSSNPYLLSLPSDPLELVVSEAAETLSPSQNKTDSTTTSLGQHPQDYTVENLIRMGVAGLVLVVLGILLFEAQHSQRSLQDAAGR

B1: PRO3697 (scFv)
scFv: AFQLTQSPSSLSASVGDRVTITCQASQSIGTYLAWYQQKPGKPPKLLIYRGGTLASGVPSRFSGSGSGTDFTLTISSLQPEDFATYYCQSYDSSNTFGTGTKVTVLGGGGGSGGGGSGGGGSGGGGSQEQLVESGGGLVQPGRSLRLSCAASGFDLSADYMCWVRQAPGKGLEWIACIYIDDDNTYYATWAKGRFTISKDNSKNTVYLQMNSLRAEDSAVYFCARGYGVYTGAITYFTLWGQGTLVKVSS
notes: anti-LILRB2 scFv; in the CELISA selectivity test it was cross-linked with an anti-framework antibody; also called 69-06-G04-sc05
In the case of B1, the Kd in [1] came to 0.131 nM. The koff in test [1] turned out to be 0.000128 s⁻¹. The kon in [1] amounted to 974000 M⁻¹ s⁻¹. The molecule also registered an IC50 in test [2] of 0.593 nM. Further, the binding result in test [3], in test [4], in test [5], in test [6], in [7] and in test [8] was “no binding” in each case. The binding result in test [9], in [10] and in [11] was “no binding” in each case. Also, the “Rel. max. inhibition % (rel. to J-19)” value in test [12] was 99.5%.

Broadly, the Kd is a measure of binding affinity in units of concentration. One may read the koff as the rate constant with which the complex falls apart. By kon is commonly meant the rate constant with which the complex forms. Broadly, the IC50 is the concentration at which inhibition is half-maximal. Read a low IC50 as higher potency.
